Test: soluble on expression in E. coli; label from the status in PepcDB or PDB records

Soluble on expression in E. coli, not soluble:
SLIKQKLKISQNLNSIQIQTIKILSLNQKELTKLILEESENNECLEINSNKIFFETLKTYRFKKVFYKEDDMIKNQHDIALEKTQTNTSLKEHLLLQLRIQRINEDEIKIGEILINNLNSKGFHIINPYDLFKKEEKEKVKKIIELIQKFDPIGICVPNIIESLILQAKHHKLETNIIKILEKAELLEKTQKKLKEELKIRSKEFNTALEIIRQKLNPNPTLEFKDPNDTNFYVDPDILIINHNNKFKIKIKEVNIFKKELKRTSENPQKQKKAKWLIESLRYRDEILAKIGIAIYTLQKEFLRRGFKSLRPMNLSILSEKISVSKSTISRAIKNKYLKCEWGTILIKELFSSVGGAKTNEFSKLSIKITVKKLLEANKKMSDKEISVILKSKGISISRRTVNKYRNELKSEKGRTYYGT, MGSDKIHHHHHHMLSVEKLACTHGDSHYLFDEVTFSLNPGERILISGYSGCGKSTLALLLSGLKESGKGQVLLNGSLIEPSDVGFLFQNPDLQFCMDTVAHELYFILENLQIEPEQMQDRSEFVLAQVGLKGFQNRLIYTLSQGEKQRLALATIFLKSPKLIILDEAFANLDQESASQLLQLVLNYQANNQSMLIVIDHLITYYQDIMDHYFWLEKRLTRVNFDYMLNRLNVFELEKKSHNTGDKLLSIKDFQVKLSKNKFISYLDFDLASGERLCLDGPSGVGKSSLFMGLLGLYRTKGKKQFTHRKQIPISFLFQNPLDQFIFSTVYDEIFQVCKDSNKARDILETINLWDKKQFSPFQLSQGQQRRLAIGSILASDSKLLLLDEPTYGQDAYHANMITTLLLSYCHKNHCGVIFTSHDPHLKECFATRFLEVSSCSI, MQYHEIGKTGMKVSSLSFGASSLGGVFHDLKEKEGIQAVFTAIEAGMNFIDVSPYYGHYKAETVLGKALKDIPRDRYYLSTKVGRYGKDGVNTWDYSAKRATESVYESMERLNIDFIDLINVHDIEFADLNQVVNETLPALVELREKGVVGHVGITDLQLENLKWVIDRSPSGTIESVLSFCHYCLCDDKLADFLDYFESKEIGVINASPLSMGLLSERGVPVWHPAPKPLVDACRKAMEHCKAKNYPIEKLAMQFSVSNPKIATTLFSTTNPENVKKNIGFIEEPVDWELVREVREIIGEQQRVSWANS, MGSDKIHHHHHHMNLEEVLNYRRSVRVFDKTKPLDPEKVKHCLELATLAPNSSNMQLWEFYQVIQPELLAKISKACLDQTATSTASEVVVFVTRQDLYRIRAKFVLDFERGNVRRNSPKERQEKRIKDRELYYGKLMPFLYARFFRILGLLRSVLAKAIGLFRPIVREVSESDMRVVVHKSCALAAQTFMIAMANEGYDTCPLEGFDSKQMKKLLKLPHGAEVNMVIACGIRDGNKGIWGERGRVPFDEVYHRV, MSSGNRQAPMPPPKPRNLGRGQFYQQGGYLTPQDSDTDSGISADCDQGSPRAAAGFGGTGFNGTVNGQQVNSQRRIPDLPPGAYQNYRSHSSADYLTPNSARKIASYSTTPRRLPLQPQQQAPATATKAKYRVRFADEVDSGASTSSGTSSTHISPRNDPQEMLMNSAVGAPQITSTFQQPASYMQNSSDAQYKMNKIEYPPVSRTPPVACSSRTGTLQRTPNRRLPISSTPQPQPTYADQMQSLPEPPPYTIAMQRLRSVEQQPQESFRDAFIRKSVNDTLQRRYRQRSSSLPRGNKSYYEGIDIYDAQPPIRPLPQQQTSLMTVANQLPGSLDNLHINNLNMRRRKLPTAPLMGSSCQLHLDNSDELTAYRALQFQMMQDELQRQQPPPQSFERPTLLRRTNMPQQQSFNIPHITTTGPPPPAMGLSVPVQYDQGEYGTQSVRAQLVALDQRGFRRVLVEKMMPGPFGFYIATGVVAGQRAGIFISRVSLPSLSPMLTVGDEIIYVDEEYVKGRSLEYVQSLRIFEFQTELITEEPPHKQVIFM, MGSDKIHHHHHHMQDCDVRIFYIFKSLYDSGSATFVSQQHSVSPSKVSRYIAEMREVYNDSLFIRRKTHFVPTKKAREIYPKICEIIELIEGLSANRHELEVKKECVIAVPATLCVGLPEHLNRVIKQEGLDISLKVMSSHREICTKVINGEICIAITNRACTQTMDCNPKHSNLLHVEPISVGEHVYVVSAATGAIWQEKISLDNIAKYPFVVTQVSGFNDEKDPFEVYCEQRGLALNVFLKTQNLASMIEALMSENTISFIGPNSAAAFIAKVPSLRVEKLENCEYQRLHEAMHKPTYSMIYLKRNIDVIPPLIKSEVLRFISDSVCDF, MNPLRSIQHNITTPPISGGQPLDAVGPQAQQSHPKRISPSQLSQSAHQALERLSANAEHQRLASLVRNALQDGTFQFQSSNHTQVTYKASICLPADTDTVRTDHLINNELTVQARLNDQSEYDIVSAHLHGSSKAISFDVPSPPPAHGSASSVLSERTHLGMSSVLSQDAVDSSSLETPLVSSPDHSRPPSQPKPVHIGSVRRDSGSLVSDNPVVQALLSFVQADQAFPPQAASIAGVQLEMRSRRDIEQALEELKGAFTVEKAQLMSGGSSSERVDEDVNADIHIPLLLKAIERGAGAFGPGALIEIADGGQISAKAFLASCAPTITSNDDVLSEFINQKLKGDDDLQVRLGAQELLHVATKKEFQLGGLAGSIGVSSILGSAWELGASELLKNAIFGKNFSPSQYALQLAGIDSVPPFIIEAMDSFCVLVIIKGMKGELWSMKDLLPKALKAGAISSAMSFPNNVLQYAGFKSRVADLAANSITTEAAIFGAASGIPPEVKESEELMRAGLFQSMKDGVMAHPGEGMDTKETIERMTRHALDIAPGESTAVKSMGLAAIVGMIPLIASSKATGLVSEQILRIFRNAVFNPIEAIALNALALGGRVNVPGLFDSDNAKHARVAQTILARASQHMEAGDREISAEELHQMLAPRSEFLRHVGSAIVNGMNASFEAIPALVRKLGYGEAPLAERIPYQDLAVPDTSRQPAP, MIGIVAAFEKVKIPEMGKSFGTGWLPPLPSLKDYTEESAQIPEMAEKLGIPTSRKETKTLELPVSIDFRNWCSPIEDQMDLGSCTAHAGVGVVEYFERRAFGKHIDGSRFFVYKTTRNLMGVKGDTGAWLRNTMGALALCGVPPEKYFPYTSRKTPGPDGEPTFDDEPSSFVYSLADNFEALNYFCHDPQGMNLPPEDVILSVKKYLAAGIPSMFGFYGFPSFKDTDVKGGIPFPGPDERSIWGHAVVAVGYDDNMKIRNTLSNKETTGAFLIRNSWGTAWGDKGYGWLPYEYALNKLEHHHHHH, MEVKALAHAKNDSVAVATDDLKEGEEIQVAFLDNNEKTKITTAEVIPLGHKISLKDIKKGENVIEYGEVIGAATKDIKRGEHVHIHNIKSLRW

Soluble on expression in E. coli, soluble:
MSKQELDAALKKAKELASSAPVVVFSKTYCGYCNRVKQLLTQVGASYKVVELDELSDGSQLQSALAHWTGRGTVPNVFIGGKQIGGCDTVVEKHQRNELLPLLQDAAATAKTSAQL, DETIHLERGENLFEIHINKVTFSSEVLQASGDKEPVTFCTYAFYDFELQTTPVVRGLHPEYNFTSQYLVHVNDLFLQYIQKNTITLEVHQAYSTEYETIAACQLKFHEILEKSGRIFCTASLIGTKGDIPNFGTVEYWFRLRV, AHHHHHHGSGRFKKVPSSLCPMKKPGDVLREILQEKGIKSVGTLSRKWPSGRDIYQELALLLLEGDGAIVELREETAESWDLNGKKVGPSKYAYVRPCFVEKFKVIVDGSEIAKRLPDYPWIIVDLTFWNRHIPKEKDKVALQLRETYAVVRRMYYPRRFAITWVNEEFKKKNKVPLEKVVSYEGSTADFLREKGINRVVLLDPNAEEVLSREDLQERAFIIGGIVDMKGDKKGTTAKIGEVLEKEGIDVLRRKIVLRGDIVGVPDRINHIAEILLRMLYGEDMEKAILAVQAPTHARWRLRKEIPKRKIRYLIDGKLYLVVEKELYDELKQWLNIRWEDFVKVLRETGMVALERRRIHHLNKISVFRFDKSGGKRVILLKRAALLCYNC, MSLGRDKDLNILCWEGYNSAQVLDPFRKLTGATVKAESSTNDPTMINRLRAGETNVWDLINVNNPWARKILWPQNLIKPLDRAEFEPFFDKMLPEFKAPYRWAMSDDGKDLLGMAQRFGPFCFVVDTDKISRQTAEDQGWDLWNDKALAGRYGIQESDDWNVFGLFLIAGINPFKTHTEAELAKFEETAKAVFKGAKVVGDMASMNQALVSGEIDLYLSGGTYTVSPARAEGLGNLRGITPLRGPIDGKGGVMWVEITSQVNNPQLSPLAGQFLKHVQTPQVAHTVAFAEGTFNPIAQMGNPDCFKLFSKAELDAIQWDSLAEEMARSVAYDIVPDYDKALDLMTAAKRVRGEGHHHHHH, MKNETLHTQEDIIKMLDSLLRPAEPFWNEFYANREKDVPFFENVPDENLVSYIQKKRVSKGKVLELGCGPGRNAIYLANEGFDVTAVDVSIEGINWAKERALAKGVEIEFICDSIFNLEVQNEFDFVYDSGCLHHIPPHRRVNYVDLIKNALKSGGYFGLTCFAAGDLDERNGSEITDWDVYRGWSLQGGLAYSEEKLREIFKGFEVIEIRKMEQIEQPNTMFGESFLWTALFKKNLEHHHHHH, MTARYIAIDWGSTNLRAWLYQGDHCLESRQSEAGVTRLNGKSPAAVLAEVTTDWREENTPVVMAGMVGSNVGWKVAPYLSVPARFSSIGEQLTSVGDNIWIIPGLCVSHDDNHNVMRGEETQLIGARALAPSSLYVMPGTHCKWVQADSQQINDFRTVMTGELHHLLLNHSLIGAGLPPQENSADAFAAGLERGLNAPAILPQLFEVRASHVLGTLPREQVSEFLSGLLIGAEVASMRDYVTHQHAITLVAGTSLTARYQQAFQAMGCDVAAVAGDTAFQAGIRSIAHAVAN, MSLKKRIPTLLATMIATALYSQQGLAADLASQCMLGVPSYDRPLVQGDTNDLPVTINANHAKGDYPDDAVFTGSVDIMQGNSRLQADEVQLHQKEAPGQPEPVRTVDALGNVHYDDNQVILKGPKGWANLNTKDTNVWEGDYQMVGRQGRGKADLMKQRGENRYTILDNGSFTSCLPGSDTWSVVGSEIIHDREEQVAEIWNARFKVGPVSIFYSPYLQLPVGDKRRSGFLIPNAKYTTTNYFEFYLPYYWNIAPNMDATITPHYMHRRGNIMWENEFRYLSQAGAGLMELDYLPSDKVYEDEHPNDDSSRRWLFYWNHSGVMDQVWRFNVDYTKVSDPSYFNDFDNKYGSSTDGYATQKFSVGYAVQNFNATVSTKQFQVFSEQNTSSYSAEPQLDVNYYQNDVGPFDTRIYGQAVHFVNTRDDMPEATRVHLEPTINLPLSNNWGSINTEAKLLATHYQQTNLDWYNSRNTTKLDESVNRVMPQFKVDGKMVFERDMEMLAPGYTQTLEPRAQYLYVPYRDQSDIYNYDSSLLQSDYSGLFRDRTYGGLDRIASANQVTTGVTSRIYDDAAVERFNISVGQIYYFTESRTGDDNITWENDDKTGSLVWAGDTYWRISERWGLRGGIQYDTRLDNVATSNSSIEYRRDEDRLVQLNYRYASPEYIQATLPKYYSTAEQYKNGISQVGAVASWPIADRWSIVGAYYYDTNANKQADSMLGVQYSSCCYAIRVGYERKLNGWDNDKQHAVYDNAIGFNIELRGLSSNYGLGTQEMLRSNILPYQNTLEGHHHHHH, MGHHHHHHSHMLQPPKIVAELSANHNQDLNLAKESLHAIKESGADFVKLQTYTPSCMTLNSKEDPFIIQGTLWDKENLYELYQKASTPLEWHAELFELARKLDLGIFSSPFSSQALELLESLNCPMYKIASFEIVDLDLIEKAARTQKPIILSSGIATHTELQDAISLCRRVNNFDITLLKCVSAYPSKIEDANLLSMVKLGEIFGVKFGLSDHTIGSLCPILATTLGASMIEKHFILNKSLQTPDSAFSMDFNGFKSMVEAIKQSVLALGEEEPRINPKTLEKRRFFARSLFVIKDIQKGEALTENNIKALRPNLGLHPKFYKEILGQKASKFLKANTPLSADDIERSL
